Experiment [1] concerns the target human FGF-9 (human, UniProt P31371 4-208). Put plainly: cell-based or functional assay.
The target of experiment [2] is T1, recombinant human FGF-17 (human, UniProt O60258 23-216).
T1 sequence (looked up): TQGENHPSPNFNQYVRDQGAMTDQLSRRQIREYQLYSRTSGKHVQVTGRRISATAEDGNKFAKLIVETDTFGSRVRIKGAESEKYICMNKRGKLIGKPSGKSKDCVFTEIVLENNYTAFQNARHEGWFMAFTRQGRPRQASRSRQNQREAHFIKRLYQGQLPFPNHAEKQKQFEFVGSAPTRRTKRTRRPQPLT
Put plainly: direct binding ELISA, FGF-17 coated, FGFR-Fc titrated with heparin, anti-human Fc-HRP. As to the method: (§1) To determine the binding capability of FGFR-Fc to their respective ligands, an ELISA was run. Recombinant human FGF-8b or FGF-17 (R&D Systems) was plated at 100 nM on a Nunc Maxisorp 96-well plate for 1 h at room temperature with shaking. The plates were blocked with BLOTTO (Thermo Fisher Scientific, Rockford, Ill.) for 1 h at room temperature, then washed 5 times with ELISA C buffer (137 mM NaCl, 2.7 mM KCl, 7.2 mM Na₂HPO₄, 1.5 mM KH₂PO₄, 0.05% (v/w) polysorbate 20, pH 7.2). FGFR-Fcs were diluted to 100 nM with PBS/0.1×BLOTTO/10 ug/ml porcine heparin (Sigma, St. Louis, Mo.) and then 1:2 serial dilutions were made, ending at 0.10 nM. 100 μL of FGFR-Fcs were plated and incubated at 4° C. overnight. The following day, the plates were washed 5 times with ELISA C and then incubated with 2.5 μg/mL horseradish peroxidase-conjugated anti-human Fc antibody (Jackson ImmunoResearch Laboratories, West Grove, Pa.) for 1 h at room temperature with shaking. After 5 washes with ELISA C, 100 μL of OPD in citrate buffer (5 mg of o-phenylenediamine in 63 mM sodium citrate, 37 mM citric acid, pH 5.0, 0.03% H₂O₂) was added for detection. After 2-5 minutes, the reaction was stopped with 1 N H₂SO₄. The plates were read at 490 nm using SoftMaxPro software.

Experiment [3] concerns the target T2, recombinant human FGF-8b (human, UniProt P55075-3 23-215).
T2 sequence (looked up): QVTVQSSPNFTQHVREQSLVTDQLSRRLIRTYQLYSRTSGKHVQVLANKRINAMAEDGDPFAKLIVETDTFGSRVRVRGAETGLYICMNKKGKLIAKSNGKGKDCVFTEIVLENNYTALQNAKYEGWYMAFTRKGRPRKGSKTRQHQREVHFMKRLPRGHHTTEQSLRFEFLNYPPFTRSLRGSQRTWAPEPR
The experiment is described as follows: direct binding ELISA, FGF-8b coated, FGFR-Fc titrated with heparin, anti-human Fc-HRP. As to the method:
as §1

Experiment [4] addresses T3, recombinant human FGF6 (human, UniProt P10767 83-208, limits assumed).
T3 sequence (looked up): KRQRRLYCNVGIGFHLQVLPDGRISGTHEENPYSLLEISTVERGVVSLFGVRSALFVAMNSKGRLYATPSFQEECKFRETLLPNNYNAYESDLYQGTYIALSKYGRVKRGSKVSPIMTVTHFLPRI
Put plainly: SPR (Biacore T100), FGFR-Fc captured on protein A, FGF6 analyte with heparin, bivalent analyte model (KA1). As to the method:
(§2) Materials and Methods: Binding kinetics and affinity studies were performed on a Biacore T100™ system (GE Healthcare, Piscataway, N.J.). Methods for the Biacore T100™ were programmed using Biacore T100™ Control Software, v 2.0. Since each of the FGF receptor molecules contained a human Fc domain, biotinylated protein-A (Thermo Fisher Scientific Inc, Rockford, Ill.) was used as a capture reagent for these studies. Biotinylated protein-A was diluted to concentration of 50 μg/mL in HBS-EP buffer (10 mM HEPES, 150 mM NaCl, 3 mM EDTA, 0.05% Surfactant P20; GE Healthcare, Piscataway, N.J.), and then captured to all four flow cells of a SA (streptavidin) sensor chip. A density of approximately 1100 RU was obtained for each flow cell. Each FGF receptor molecule was subsequently captured via protein-A onto a separate flow cell of the SA chip at an approximate density of 150-250 RU. The Biacore instrument measures the mass of protein bound to the sensor chip surface, and thus, capture of the receptor was verified for each cycle.
(§3) For kinetic binding studies, serial 1:5 dilutions of FGF ligands were prepared from 200 nM-0.06 nM. These samples were injected over the surface and allowed to specifically bind to the FGF receptor captured on the sensor chip. Injections of each ligand concentration were performed with an association time of 7 minutes and dissociation time of 15 minutes. Kinetic binding studies were performed with a flow rate of 50 μL/min. All binding experiments were performed at 25° C. in HBS-P buffer (10 mM HEPES, 150 mM NaCl, 0.05% Surfactant P20, pH 7.4; GE Healthcare, Piscataway, N.J.), containing 50 μg/mL heparin (Calbiochem, La Jolla, Calif.).
(§4) Between cycles, the flow cell was washed with 20 mM hydrochloric acid to regenerate the surface. This wash step removed both the captured FGF receptor and any bound FGF ligand from the protein-A surface, and allowed for the subsequent binding of the next test sample. Data was compiled using the Biacore T100™ Evaluation software (version 2.0). Data was processed by subtracting reference flow cell and blank injections. Baseline stability was assessed to ensure that the regeneration step provided a consistent binding surface throughout the sequence of injections. Duplicate injection curves were checked for reproducibility. Binding curves were globally fit to the bivalent analyte model.

For experiment [5], the target named is T3, recombinant human FGF6. Put plainly: SPR (Biacore T100), FGFR-Fc captured on protein A, FGF6 analyte with heparin, bivalent analyte model (KD1). As to the method: as §2, §3, §4
The target of experiment [6] is T3, recombinant human FGF6. Put plainly: SPR (Biacore T100), FGFR-Fc captured on protein A, FGF6 analyte with heparin, bivalent analyte model (ka1). The protocol: as §2, §3, §4
Experiment [7] has as its target T3, recombinant human FGF6. Put plainly: SPR (Biacore T100), FGFR-Fc captured on protein A, FGF6 analyte with heparin, bivalent analyte model (kd1). As to the method:
as §2, §3, §4

For experiment [8], the target named is T2, recombinant human FGF-8b. The experiment is described as follows: cell-based or functional assay.

Experimental findings from US20120134993A1 (ZymoGenetics, published 2012) are described below.

B1: FGFR3IIIc(143-375) Fc5, truncated FGFR3-Fc (A2518F) (Fc fusion)
chain: DTGVDTGAPYWTRPERMDKKLLAVPAANTVRFRCPAAGNPTPSISWLKNGREFRGEHRIGGIKLRHQQWSLVMESVVPSDRGNYTCVVENKFGSIRQTYTLDVLERSPHRPILQAGLPANQTAVLGSDVEFHCKVYSDAQPHIQWLKHVEVNGSKVGPDGTPYVTVLKTAGANTTDKELEVLSLHNVTFEDAGEYTCLAGNSIGFSHHSAWLVVLPAEEELVEADEAGSVYAGEPKSSDKTHTCPPCPAPEAEGAPSVFLFPPKPKDTLMISRTPEVTCVVVDVSHEDPEVKFNWYVDGVEVHNAKTKPREEQYNSTYRVVSVLTVLHQDWLNGKEYKCKVSNKALPSSIEKTISKAKGQPREPQVYTLPPSRDELTKNQVSLTCLVKGFYPSDIAVEWESNGQPENNYKTTPPVLDSDGSFFLYSKLTVDKSRWQQGNVFSCSVMHEALHNHYTQKSLSLSPGK
notes: This is the form with the second and third Ig-like domains; also called FGFR3 A2518F; FGFR3IIIc(143_375) C(Fc5)
For the molecule B1, the “Proliferation IC50, FGF-9-stimulated HCO osteoblasts (3H-thymidine)” value in experiment [1] amounted to 0.77 nM. The 50% inhibitory concentration (IC50) came out at 3.79 nM in experiment [2] and 16.4 nM in experiment [3]. Moreover, in experiment [4], the Ka came to 3e+06 M⁻¹. In addition, the Kd in experiment [5] was found to be 300 nM. In addition, in experiment [6], the kon was 200000 M⁻¹ s⁻¹. The dissociation rate constant (koff) in experiment [7] was determined as 0.06 s⁻¹.

B2: FGFR3IIIc(143-375)(P250R) Fc5, truncated FGFR3-Fc P250R (A2519F) (Fc fusion)
chain: DTGVDTGAPYWTRPERMDKKLLAVPAANTVRFRCPAAGNPTPSISWLKNGREFRGEHRIGGIKLRHQQWSLVMESVVPSDRGNYTCVVENKFGSIRQTYTLDVLERSRHRPILQAGLPANQTAVLGSDVEFHCKVYSDAQPHIQWLKHVEVNGSKVGPDGTPYVTVLKTAGANTTDKELEVLSLHNVTFEDAGEYTCLAGNSIGFSHHSAWLVVLPAEEELVEADEAGSVYAGEPKSSDKTHTCPPCPAPEAEGAPSVFLFPPKPKDTLMISRTPEVTCVVVDVSHEDPEVKFNWYVDGVEVHNAKTKPREEQYNSTYRVVSVLTVLHQDWLNGKEYKCKVSNKALPSSIEKTISKAKGQPREPQVYTLPPSRDELTKNQVSLTCLVKGFYPSDIAVEWESNGQPENNYKTTPPVLDSDGSFFLYSKLTVDKSRWQQGNVFSCSVMHEALHNHYTQKSLSLSPGK
notes: also called FGFR3 A2519F; FGFR3IIIc(143_375) (P250R) C(Fc5)
With B2, the “Proliferation IC50, FGF8b-stimulated LNCap cells (3H-thymidine)” value in experiment [8] is 0.01 nM. Moreover, the “Proliferation IC50, FGF-9-stimulated HCO osteoblasts (3H-thymidine)” value in experiment [1] is 0.99 nM. In addition, the 50% inhibitory concentration (IC50) stood at 37.6 nM in experiment [2] and 9.7 nM in experiment [3]. Moreover, the Ka in experiment [4] came out at 5e+07 M⁻¹. The Kd in experiment [5] worked out at 20 nM. In addition, the kon in experiment [6] was determined as 200000 M⁻¹ s⁻¹. For the same molecule, the dissociation rate constant (koff) in experiment [7] came to 0.004 s⁻¹.

B3: FGFR2alphaIIIc(145-377)(S252W) Fc5, truncated FGFR2-Fc S252W (A2560F) (Fc fusion)
chain: SENSNNKRAPYWTNTEKMEKRLHAVPAANTVKFRCPAGGNPMPTMRWLKNGKEFKQEHRIGGYKVRNQHWSLIMESVVPSDKGNYTCVVENEYGSINHTYHLDVVERWPHRPILQAGLPANASTVVGGDVEFVCKVYSDAQPHIQWIKHVEKNGSKYGPDGLPYLKVLKAAGVNTTDKEIEVLYIRNVTFEDAGEYTCLAGNSIGISFHSAWLTVLPAPGREKEITASPDYLEEPKSSDKTHTCPPCPAPEAEGAPSVFLFPPKPKDTLMISRTPEVTCVVVDVSHEDPEVKFNWYVDGVEVHNAKTKPREEQYNSTYRVVSVLTVLHQDWLNGKEYKCKVSNKALPSSIEKTISKAKGQPREPQVYTLPPSRDELTKNQVSLTCLVKGFYPSDIAVEWESNGQPENNYKTTPPVLDSDGSFFLYSKLTVDKSRWQQGNVFSCSVMHEALHNHYTQKSLSLSPGK
notes: also called FGFR2 A2560F; construct #1949
In the case of B3, the concentration for half-maximal inhibition (IC50) in experiment [2] amounted to 223 nM.

B4: FGFR3IIIc(23-375) Fc5, full-length FGFR3-Fc (A2257F) (Fc fusion)
chain: ESLGTEQRVVGRAAEVPGPEPGQQEQLVFGSGDAVELSCPPPGGGPMGPTVWVKDGTGLVPSERVLVGPQRLQVLNASHEDSGAYSCRQRLTQRVLCHFSVRVTDAPSSGDDEDGEDEAEDTGVDTGAPYWTRPERMDKKLLAVPAANTVRFRCPAAGNPTPSISWLKNGREFRGEHRIGGIKLRHQQWSLVMESVVPSDRGNYTCVVENKFGSIRQTYTLDVLERSPHRPILQAGLPANQTAVLGSDVEFHCKVYSDAQPHIQWLKHVEVNGSKVGPDGTPYVTVLKTAGANTTDKELEVLSLHNVTFEDAGEYTCLAGNSIGFSHHSAWLVVLPAEEELVEADEAGSVYAGEPKSSDKTHTCPPCPAPEAEGAPSVFLFPPKPKDTLMISRTPEVTCVVVDVSHEDPEVKFNWYVDGVEVHNAKTKPREEQYNSTYRVVSVLTVLHQDWLNGKEYKCKVSNKALPSSIEKTISKAKGQPREPQVYTLPPSRDELTKNQVSLTCLVKGFYPSDIAVEWESNGQPENNYKTTPPVLDSDGSFFLYSKLTVDKSRWQQGNVFSCSVMHEALHNHYTQKSLSLSPGK
notes: also called FGFR3 A2257F; FGFR3IIIc(23_375) C(Fc5)
In the case of B4, the “Proliferation IC50, FGF-9-stimulated HCO osteoblasts (3H-thymidine)” value in experiment [1] was determined as 1.19 nM. For the same molecule, the results for the IC50 in experiment [2] and in experiment [3] were 20.1 nM and 41.9 nM, respectively. Besides, the Ka in experiment [4] came out at 7e+06 M⁻¹. Moreover, the Kd in experiment [5] stood at 200 nM. The kon in experiment [6] amounted to 400000 M⁻¹ s⁻¹. Besides, the koff in experiment [7] is 0.06 s⁻¹.

B5: FGFR3IIIc(23-375)(P250R) Fc5, full-length FGFR3-Fc P250R (A2259F) (Fc fusion)
chain: ESLGTEQRVVGRAAEVPGPEPGQQEQLVFGSGDAVELSCPPPGGGPMGPTVWVKDGTGLVPSERVLVGPQRLQVLNASHEDSGAYSCRQRLTQRVLCHFSVRVTDAPSSGDDEDGEDEAEDTGVDTGAPYWTRPERMDKKLLAVPAANTVRFRCPAAGNPTPSISWLKNGREFRGEHRIGGIKLRHQQWSLVMESVVPSDRGNYTCVVENKFGSIRQTYTLDVLERSRHRPILQAGLPANQTAVLGSDVEFHCKVYSDAQPHIQWLKHVEVNGSKVGPDGTPYVTVLKTAGANTTDKELEVLSLHNVTFEDAGEYTCLAGNSIGFSHHSAWLVVLPAEEELVEADEAGSVYAGEPKSSDKTHTCPPCPAPEAEGAPSVFLFPPKPKDTLMISRTPEVTCVVVDVSHEDPEVKFNWYVDGVEVHNAKTKPREEQYNSTYRVVSVLTVLHQDWLNGKEYKCKVSNKALPSSIEKTISKAKGQPREPQVYTLPPSRDELTKNQVSLTCLVKGFYPSDIAVEWESNGQPENNYKTTPPVLDSDGSFFLYSKLTVDKSRWQQGNVFSCSVMHEALHNHYTQKSLSLSPGK
notes: also called FGFR3 A2259F; FGFR3IIIc(23_375) (P250R) C(Fc5)
With B5, the “Proliferation IC50, FGF-9-stimulated HCO osteoblasts (3H-thymidine)” value in experiment [1] was 1.14 nM. Moreover, the figures for the IC50 in experiment [2] and in experiment [3] were 45.3 nM and 52.6 nM, respectively. In experiment [4], the Ka is 6e+07 M⁻¹. The Kd in experiment [5] came to 20 nM. For the same molecule, in experiment [6], the kon was 300000 M⁻¹ s⁻¹. Moreover, the off-rate constant (koff) in experiment [7] worked out at 0.005 s⁻¹.
